Measured values taken from patent US20250084176A1 (F STAR BETA, published 2025).

B3: mCD137-mFc-Avi (Fc fusion)
chain: VQNSCDNCQPGTFCRKYNPVCKSCPPSTFSSIGGQPNCNICRVCAGYFRFKKFCSSTHNAECECIEGFHCLGPQCTRCEKDCRPGQELTKQGCKTCSLGTFNDQNGTGVCRPWTNCSLDGRSVLKTGTTEKDVVCGPPVVSFSPSTTISVTPEGGPGGHSLQVL
modifications: one biotin on the Avi sequence of each monomer (BirA); unbiotinylated in the SPR of Example 5.6
notes: also called mouse CD137-mFc-Avi; dimeric mouse CD137; not shown: mouse IgG2a Fc domain (mIgG2a Fc)

What was measured:
[1] = biological target: human CD137, full length, on cells (human, UniProt Q07011 24-255); assay: cell-based or functional assay
[2] = biological target: T1, mouse CD137, full length, on cells (mouse, UniProt P20334 24-256); assay: cell-based or functional assay
human CD40 = human CD40 (human, UniProt P25942 21-193); assay: SPR (Biacore T200), receptor amine-coupled to CM5 chip
Procedure: (§1) The specificity of the anti-human CD137 Fcabs for human CD137 compared to other related TNFSFR family members was tested. 8 of the Fcabs were tested in mock mAb² (HeID1.3) format and measured by SPR in a Biacore T200 (GE Healthcare) by testing for binding to other human TNFRSF receptors: CD40, OX40 and GITR. Amine coupling (amine coupling kit, GE Healthcare, BR-1000-50) was used to coat human CD40, GITR and OX40 to approximately 1000 RU in Biacore CM5 chips (GE Healthcare, cat no 29149603). […] The chip was regenerated by injection of 10 mM glycine pH 2.5 for 12 s at 30 μl/min. Antibodies specific to the different TNFRSF members were used as positive controls to verify Biacore chip coating. Data was double reference subtracted and analysed using BIAevaluation 3.2 software.

human OX40 = biological target: T2, human OX40 (human, UniProt P43489 29-216, limits assumed); assay: as above
T2 sequence (looked up): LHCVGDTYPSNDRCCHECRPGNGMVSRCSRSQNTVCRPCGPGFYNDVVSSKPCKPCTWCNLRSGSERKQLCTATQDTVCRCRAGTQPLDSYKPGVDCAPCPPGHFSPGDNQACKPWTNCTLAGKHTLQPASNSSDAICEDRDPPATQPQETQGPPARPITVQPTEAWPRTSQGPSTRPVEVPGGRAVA
Procedure: as §1

human GITR = biological target: T3, human GITR (human, UniProt Q9Y5U5 26-161, limits assumed); assay: as above
T3 sequence (looked up): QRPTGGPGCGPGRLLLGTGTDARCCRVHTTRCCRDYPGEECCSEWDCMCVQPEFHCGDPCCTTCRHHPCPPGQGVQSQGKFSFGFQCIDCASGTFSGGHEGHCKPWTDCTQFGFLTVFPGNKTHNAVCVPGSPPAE
Procedure: as §1

hCD137-mFc-Avi [3] = biological target: T4, hCD137-mFc-Avi (human; mouse, UniProt Q07011 24-186, one biotin on the Avi sequence of each monomer (BirA); unbiotinylated in the SPR of Example 5.6); assay: SPR (Biacore), mAb2 captured by anti-human Fab, antigen in solution, 1:1 Langmuir
T4 construct: Made in-house in HEK293-6E; also called human CD137-mFc-Avi; dimeric human CD137; not shown: mouse IgG2a Fc domain (mIgG2a Fc)
Outline: (§2)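 Each mAb² captured (~150 RU) on an anti-human Fab surface in HBS-EP+; human, cyno or mouse CD137 ([…] CD137-mFc-Avi or human CD137-Avi-His) injected at several concentrations, 3 min association, 10 min dissociation, glycine pH 2.1 regeneration.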

hCD137-Avi-His = biological target: T5, hCD137-Avi-His (human, UniProt Q07011 24-186, single biotin on the Avi sequence (BirA); unbiotinylated in the SPR of Example 5.6); assay: as above
T5 construct: also called human CD137-Avi-His; monomeric human CD137
Outline: as §2

cCD137-mFc-Avi = biological target: T6, cCD137-mFc-Avi (cynomolgus; mouse, one biotin on the Avi sequence of each monomer (BirA); unbiotinylated in the SPR of Example 5.6); assay: as above
T6 construct: also called cyno CD137-mFc-Avi; dimeric cynomolgus CD137; not shown: mouse IgG2a Fc domain (mIgG2a Fc)
T6 chain: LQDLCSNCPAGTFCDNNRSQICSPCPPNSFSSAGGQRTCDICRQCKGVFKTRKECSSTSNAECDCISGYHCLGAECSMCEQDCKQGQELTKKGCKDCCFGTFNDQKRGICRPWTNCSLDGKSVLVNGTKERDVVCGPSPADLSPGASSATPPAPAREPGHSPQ
Outline: as §2

mCD137-mFc-Avi = biological target: B3; assay: as above
Outline: as §2

hCD137-mFc-Avi [4] = biological target: T4, hCD137-mFc-Avi; assay: SPR (Biacore T200), mAb2 captured by anti-human Fab, hCD137-mFc in solution, 1:1 Langmuir
Procedure: For the hCD137-mFc-Avi antigen the following method was used: an anti-human Fab molecule was immobilised on a CM5 chip to a surface density of between 9,000 and 11,000 response units (RU). The antibodies were diluted to 4 μg/ml in HBS-EP buffer and captured by the anti-Fab molecule with a flow rate of […].
For mCD137-mFc-Avi binding kinetic determination, a different approach was used. […] The analysis of the data was done using the Biacore T200 evaluation software. Curves were subtracted against a blank flow cell and fitted using a 1:1 Langmuir binding model with mass transfer, setting RI to zero as constant and Rₘₐₓ to local.

[5] = biological target: T1, mouse CD137, full length, on cells; assay: cell-based or functional assay; remark: listed apart in the source
mouse CD40 = mouse CD40 (mouse, UniProt P27512 24-193, limits assumed, biotinylated (EZ-Link Sulfo-NHS-SS-Biotin)); assay: BLI (Octet QKe), biotinylated receptor on streptavidin sensors
Procedure: (§3) The specificity of the anti-mouse CD137 Fcabs for mouse CD137 was tested in HeID1.3 “mock” mAb² format and measured by BLI in an Octet QKe system by testing for binding of the Fcabs to other mouse TNFRSF receptors (CD40, OX40, GITR). […] Anti-mouse CD137 Fcabs in mock mAb² format were diluted 1:1 in kinetic buffer (PALL 18-1092) to a final concentration of at least 1 μM. Antigen-coated sensors were dipped into the mAb² solutions for 180 seconds followed by 180 seconds in 1× kinetic buffer. Antibodies for each of the TNFRSF receptors were used as positive controls.

mouse GITR = biological target: T7, mouse GITR (mouse, UniProt O35714 20-153, limits assumed, biotinylated (EZ-Link Sulfo-NHS-SS-Biotin)); assay: as above
T7 sequence (looked up): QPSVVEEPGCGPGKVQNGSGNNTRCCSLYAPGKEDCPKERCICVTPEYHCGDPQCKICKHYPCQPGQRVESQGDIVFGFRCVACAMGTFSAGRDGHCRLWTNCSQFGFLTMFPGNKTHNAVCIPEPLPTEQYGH
Procedure: as §3

[6] = biological target: T8, mouse CD137 ligand on DO11.10 cells (mouse, UniProt P41274 1-309); assay: flow cytometry, detection with anti mouse Fc fragment antibody
T8 construct: whole, on cells
T8 sequence (looked up): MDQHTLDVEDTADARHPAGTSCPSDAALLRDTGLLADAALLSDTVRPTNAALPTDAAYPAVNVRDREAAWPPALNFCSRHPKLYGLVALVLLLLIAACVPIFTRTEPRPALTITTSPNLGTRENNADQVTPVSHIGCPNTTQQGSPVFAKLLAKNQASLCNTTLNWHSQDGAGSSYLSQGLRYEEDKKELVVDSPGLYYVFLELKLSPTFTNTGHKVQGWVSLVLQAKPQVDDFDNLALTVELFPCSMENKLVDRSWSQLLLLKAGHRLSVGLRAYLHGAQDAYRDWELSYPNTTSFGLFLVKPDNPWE
Procedure: In more detail, materials from the same production lot were mixed together and analysed for stability and purity by size-exclusion high-performance liquid chromatography (SE-HPLC), SDS polyacrylamide gel electrophoresis (SDS-PAGE), and size-exclusion chromatography with multi-angle light scattering (SEC-MALS). […] Cells were incubated with the CD137 antigens for 1 hour, and then a fluorescently-labelled anti mouse Fc fragment antibody was used to detect cell binding.

T4 sequence (Q07011 24-186): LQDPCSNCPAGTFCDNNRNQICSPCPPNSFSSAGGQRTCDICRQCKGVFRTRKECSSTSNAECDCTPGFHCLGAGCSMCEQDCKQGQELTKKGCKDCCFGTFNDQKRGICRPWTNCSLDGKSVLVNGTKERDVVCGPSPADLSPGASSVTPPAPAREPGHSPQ
Sequence of mouse CD40 (P27512 24-193 limits assumed): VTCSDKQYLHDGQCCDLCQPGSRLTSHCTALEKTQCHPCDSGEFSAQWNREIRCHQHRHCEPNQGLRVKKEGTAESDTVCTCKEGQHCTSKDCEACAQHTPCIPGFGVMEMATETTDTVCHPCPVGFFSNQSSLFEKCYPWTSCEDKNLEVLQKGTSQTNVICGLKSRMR
Sequence of human CD137, full length, on cells (Q07011 24-255): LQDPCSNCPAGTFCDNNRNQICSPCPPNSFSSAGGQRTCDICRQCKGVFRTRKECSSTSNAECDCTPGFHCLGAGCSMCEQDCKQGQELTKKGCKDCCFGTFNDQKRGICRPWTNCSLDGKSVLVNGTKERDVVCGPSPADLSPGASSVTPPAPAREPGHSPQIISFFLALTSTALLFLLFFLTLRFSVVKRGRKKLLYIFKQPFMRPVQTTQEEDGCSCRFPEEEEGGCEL
Sequence of human CD40 (P25942 21-193 limits assumed): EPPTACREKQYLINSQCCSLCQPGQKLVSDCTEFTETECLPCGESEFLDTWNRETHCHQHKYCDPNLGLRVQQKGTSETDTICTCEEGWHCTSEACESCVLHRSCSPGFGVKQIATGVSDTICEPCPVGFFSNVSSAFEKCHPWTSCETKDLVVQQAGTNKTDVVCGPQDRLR
T5 sequence (Q07011 24-186): as the sequence (Q07011 24-186) above

B1: FS22-053-014/HelD1.3 (bispecific antibody, human IgG1, kappa)
heavy: QVQLQESGPGLVRPSQTLSLTCTVSGSTFSGYGVNWVRQPPGRGLEWIGMIWGDGNTDYNSALKSRVTMLVDTSKNQFSLRLSSVTAADTAVYYCARERDYRLDYWGQGSLVTVSSASTKGPSVFPLAPSSKSTSGGTAALGCLVKDYFPEPVTVSWNSGALTSGVHTFPAVLQSSGLYSLSSVVTVPSSSLGTQTYICNVNHKPSNTKVDKKVEPKSCDKTHTCPPCPAPELLGGPSVFLFPPKPKDTLMISRTPEVTCVVVDVSHEDPEVKFNWYVDGVEVHNAKTKPREEQYNSTYRVVSVLTVLHQDWLNGKEYKCKVSNKALPAPIEKTISKAKGQPREPQVYTLPPSRDELNPPYLFSNQVSLTCLVKGFYPSDIAVEWESNGQPENNYKTTPPVLDSDGSFFLYSKLTVYHWRWLDGNVFSCSVMHEALHNHYTQKSLSLSPG
light: DIQMTQSPASLSASVGETVTITCRASGNIHNYLAWYQQKQGKSPQLLVYNAKTLADGVPSRFSGSGSGTQYSLKINSLQPEDFGSYYCQHFWSTPRTFGGGTKLEIKRTVAAPSVFIFPPSDEQLKSGTASVVCLLNNFYPREAKVQWKVDNALQSGNSQESVTEQDSKDSTYSLSSTLTLSKADYEKHKVYACEVTHQGLSSPVTKSFNRGEC
notes: Mock mAb^2, IgG1 without LALA; also called FS22-053-14; FS22-053-014/HeID1.3
IL-2 release, human CD137 DO11.10 T cell activation assay, Protein L: +XL EC50 [1]: 0.73 nM
IL-2 release, mouse CD137 DO11.10 T cell activation assay, Protein L: +XL EC50 [2]: 2.04 nM
IL-2 release, mouse CD137 DO11.10 T cell activation assay, Protein L: +XL Emax [2]: 28100 pg/mL
binding result (human CD40): no binding (tested: starting at 1 µM)
binding result (human OX40): no binding (tested: starting at 1 µM)
binding result (human GITR): no binding (tested: starting at 1 µM)
Kd (hCD137-mFc-Avi [3]): 3.2 nM
Human monomeric CD137 KD fold difference relative to human dimeric KD (hCD137-Avi-His): 100 fold
Kd (cCD137-mFc-Avi): 0.9 nM
Kd (mCD137-mFc-Avi): 24 nM
Kd (hCD137-mFc-Avi [4]): 4.4 nM
koff (hCD137-mFc-Avi [4]): 0.000366 s⁻¹
kon (hCD137-mFc-Avi [4]): 83000 M⁻¹ s⁻¹

B2: FS22m-063/HelD1.3 (bispecific antibody, human IgG1, kappa)
heavy: QVQLQESGPGLVRPSQTLSLTCTVSGSTFSGYGVNWVRQPPGRGLEWIGMIWGDGNTDYNSALKSRVTMLVDTSKNQFSLRLSSVTAADTAVYYCARERDYRLDYWGQGSLVTVSSASTKGPSVFPLAPSSKSTSGGTAALGCLVKDYFPEPVTVSWNSGALTSGVHTFPAVLQSSGLYSLSSVVTVPSSSLGTQTYICNVNHKPSNTKVDKKVEPKSCDKTHTCPPCPAPELLGGPSVFLFPPKPKDTLMISRTPEVTCVVVDVSHEDPEVKFNWYVDGVEVHNAKTKPREEQYNSTYRVVSVLTVLHQDWLNGKEYKCKVSNKALPAPIEKTISKAKGQPREPQVYTLPPSRDEPYWSYVSLTCLVKGFYPSDIAVEWESNGQPENNYKTTPPVLDSDGSFFLYSKLTVMNYRWELGNVFSCSVMHEALHNHYTQKSLSLSPG
light: DIQMTQSPASLSASVGETVTITCRASGNIHNYLAWYQQKQGKSPQLLVYNAKTLADGVPSRFSGSGSGTQYSLKINSLQPEDFGSYYCQHFWSTPRTFGGGTKLEIKRTVAAPSVFIFPPSDEQLKSGTASVVCLLNNFYPREAKVQWKVDNALQSGNSQESVTEQDSKDSTYSLSSTLTLSKADYEKHKVYACEVTHQGLSSPVTKSFNRGEC
notes: also called FS22m-063 in HeID1.3 mock mAb^2 format
NF-kB luciferase reporter (HEK.FRT.luc.mCD137), Protein L crosslinked: EC50 [5]: 1.44 nM
NF-kB luciferase reporter (HEK.FRT.luc.mCD137): fold-change in activity upon crosslinking [5]: 27 fold
IL-2 release, mouse CD137 DO11.10 T cell activation assay, Protein L: +XL EC50 [2]: 0.39 nM
IL-2 release, mouse CD137 DO11.10 T cell activation assay, Protein L: +XL Emax [2]: 24200 pg/mL
binding result (mouse CD40): no binding (tested: at least 1 µM)
binding result (mouse GITR): no binding (tested: at least 1 µM)

B3
binding result [6]: binds
